Values quoted from earlier work as cited in article PMC11698047.
pKd: −log10 of the molar value. Like-named read-outs stand apart in the source and are kept apart here. One block for each substance: values may come before it.

Legend:
[1] = target: Ras (Homo sapiens) (UniProt P01112)
[2] = target: H-Ras (Homo sapiens) (UniProt P01112)
[3] = target: Ras (Homo sapiens) (UniProt P01112); remark: listed apart in the source
[4] = target: M-Ras (Homo sapiens) (UniProt O14807)
[5] = target: H-Ras (Homo sapiens) (UniProt P01112); remark: listed apart in the source
[6] = target: Rap1 (Homo sapiens) (UniProt P62834)
Sequence of Rap1 (Homo sapiens) (P62834 1-181): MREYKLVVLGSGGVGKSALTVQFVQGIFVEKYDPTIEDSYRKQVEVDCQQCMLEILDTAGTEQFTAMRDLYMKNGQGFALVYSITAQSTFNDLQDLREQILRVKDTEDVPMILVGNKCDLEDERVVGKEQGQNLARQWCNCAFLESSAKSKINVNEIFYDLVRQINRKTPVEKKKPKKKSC

[7] = target: TC21 (Homo sapiens) (UniProt P62070)
Sequence of TC21 (Homo sapiens) (P62070 2-201): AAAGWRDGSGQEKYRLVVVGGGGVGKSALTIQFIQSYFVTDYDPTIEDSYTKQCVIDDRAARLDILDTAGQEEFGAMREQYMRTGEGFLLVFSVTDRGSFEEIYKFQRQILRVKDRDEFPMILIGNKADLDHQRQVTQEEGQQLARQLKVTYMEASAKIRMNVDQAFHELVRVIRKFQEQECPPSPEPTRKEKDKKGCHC

[8] = target: R-Ras (Homo sapiens) (UniProt P10301)
Sequence of R-Ras (Homo sapiens) (P10301 1-215): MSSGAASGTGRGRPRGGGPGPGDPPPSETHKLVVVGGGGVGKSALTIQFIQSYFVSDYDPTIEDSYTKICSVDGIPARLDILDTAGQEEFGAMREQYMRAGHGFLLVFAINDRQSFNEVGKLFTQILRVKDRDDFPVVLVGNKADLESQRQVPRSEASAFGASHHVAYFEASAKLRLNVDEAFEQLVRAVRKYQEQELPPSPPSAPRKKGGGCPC

[9] = target: Rap2 (Homo sapiens) (UniProt P10114)
Sequence of Rap2 (Homo sapiens) (P10114 1-180): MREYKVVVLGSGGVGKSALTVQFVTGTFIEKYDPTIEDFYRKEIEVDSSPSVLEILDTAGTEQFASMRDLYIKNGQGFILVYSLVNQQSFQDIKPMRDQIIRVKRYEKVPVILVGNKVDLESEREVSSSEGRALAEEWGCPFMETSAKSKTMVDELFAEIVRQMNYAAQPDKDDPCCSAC

Sequence of Afadin RA1 (P55196 39-133): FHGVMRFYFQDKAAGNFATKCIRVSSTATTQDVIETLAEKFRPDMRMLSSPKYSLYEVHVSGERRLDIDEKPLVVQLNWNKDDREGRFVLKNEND
Sequence of Afadin RA1 without N-terminal α-helix (P55196 39-133): as above
Sequence of Afadin RA2 (P55196 246-348): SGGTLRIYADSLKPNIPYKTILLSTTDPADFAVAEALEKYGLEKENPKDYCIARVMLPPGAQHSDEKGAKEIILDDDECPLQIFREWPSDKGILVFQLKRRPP
Sequence of Afadin RA1 with N-terminal α-helix (P55196 1-141): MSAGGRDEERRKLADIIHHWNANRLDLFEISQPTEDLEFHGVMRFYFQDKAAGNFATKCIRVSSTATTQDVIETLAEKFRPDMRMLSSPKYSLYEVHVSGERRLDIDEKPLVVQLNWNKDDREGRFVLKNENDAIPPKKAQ

pKd [1]: 4.75
Substance: Afadin RA1 without N-terminal α-helix (from UniProt P55196)

pKd [2]: 4.52
Substance: Afadin RA2 (from UniProt P55196)

pKd [3]: 5.39
Substance: Afadin RA1 with N-terminal α-helix (from UniProt P55196)

pKd [4]: 5.60
pKd [5]: 5.60
pKd [6]: 6.62
pKd [7]: 4.80
pKd [8]: 4.80
pKd [9]: 5.60
Substance: Afadin RA1 (from UniProt P55196)
